From the supplement of paper PMC9170038

Tested on: MS2 coat protein
Assay: apparent KD of MS2 coat protein; designed switch direction (-1 OFF switch, 1 ON switch): -1; higher = weaker reporter binding
Outline: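 Each step of the titration lasted 0.8–1.5 h at the lowest concentration and 10–20 min at the highest. The protein, SNAP-549-labelled MS2 coat protein, went from 0.7 or 1.5 nM doubling to 3 µM over RNA switches transcribed on Illumina chips by stalled E. coli RNA polymerase. Normalised cluster fluorescence was curve-fitted, and the per-design median over clusters is given as apparent KD.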

[1] = Eterna round: R95, input ligand: microRNA oligo, concentration not stated
[2] = Eterna round: R95, input ligand: FMN 200 uM
[3] = Eterna round: R95, input ligand: none
[4] = input ligand: microRNA oligo, concentration not stated

Sequence | apparent KD of MS2 coat protein [1] [µM] | apparent KD of MS2 coat protein [2] [µM] | apparent KD of MS2 coat protein [3] [µM] | apparent KD of MS2 coat protein (input ligand: FMN 200 uM) [µM] | apparent KD of MS2 coat protein (input ligand: none) [µM] | apparent KD of MS2 coat protein [4] [µM]
UUUUUGUGAGGAUAUACGUAGUAGAACAAUAGUACUACUACGUAGAAGGCACAUGAGGAUCACCCAUGUUCCUC [Fiskers Ex 4 Super stable 44 mod 14] (puzzle: Exclusion 4) | 0.0452 | – | – | – | – | –
UAUUCUAGAUAGGAUAUACUUUUUUUUUUUUUCGUAGAAGGAUCUACAUGAGGAUCACCCAUGUUAUCAGCAGU [JR_E6_Sub011] (puzzle: Exclusion 6) | 0.0302 | 0.0275 | 0.0224 | – | – | –
GGAAGGCGAGGAUAUACAAUAAAGAAAGGGAAAGACGUGAGACAUGAGGAUCACCCAUGUAGAAGGCGCGGAGA [AK-MS2ROC-r4-exclusion2-12] (Eterna round: R97, puzzle: Exclusion 2) | – | – | – | 0.0401 | 0.0324 | –
UUACUAUGUCGCCUAAUAGCUUUUUGCUCGUCUUAUAUUACAUGAGGAUCACCCAUGUAGAUCAUGUGGCGUGACCU [JL ViennaUCT Maridi mod 4] (puzzle: Sensor v3, turn-off variant 2) | 0.0391 | 0.246 | 0.217 | – | – | –
AUUGUGUUAGGAUAUGCUUAUGGUGGGUAGUCCAGUAUGAAGUAGAAGGGACAUGAGGAUCACCCAUGUGCUGA [EX4 #36] (Eterna round: R97, puzzle: Exclusion 4) | – | – | – | 0.136 | 0.164 | –
ACGCAACAUGAGGAUCACCCAUGUCAGGAUAUCCGGCGAAAACCCAAGAAGGGAAACCGGAGAAGGGACAAAGG [ChP 04-04-2015 #1] (puzzle: Exclusion 1) | 0.181 | 0.134 | 0.189 | – | – | –
AAAGUGGGCCAGAACAUGAGGAUCACCCAUGUCUGAAAUAGCAAGGAUAUUACGAGCAAAAGGAGUAAGAAGGUGCACAGUACG [Eternabot solution 41] (Eterna round: R96, puzzle: Exclusion NG 3) | – | – | – | 0.024 | 0.0236 | 0.0154
AAGUACCGUCACGAUAGUGAUGGUACAACAAGCAGUGAAACAUGAGGAUCACCCAUGUCCUCAAUUGCUCGUCUUAU [Sensor 3 - 74] (puzzle: Sensor v3, turn-off variant 2) | 0.195 | 0.0399 | 0.0375 | – | – | –
ACAUGAGGAUCACCCAUGUGAAAAGAAUGGCUGACACAGAGAUAGGAUAUAUGUGCAUAUCUAACAUAGAAGGGUCAUGACUGG [Deportation 79 - Jieux - Exclusion NG 3] (Eterna round: R96, puzzle: Exclusion NG 3) | – | – | – | 0.0286 | 0.0331 | 0.0216
UAUAUAUAGUAAGGAUAUGUAAUUAAUUUAUAAACAGAAGGUACUGACAUGAGGAUCACCCAUGUUUUAGUGUGGGCAUGUAGA [JMF's solution 35] (Eterna round: R96, puzzle: Exclusion NG 1) | – | – | – | – | – | 0.0716
CAUUACUGCAGGCUUUGGGACAUGAGGAUCACCCAUGUUCGUCUUAUUGAUCUAGGUACGCUGACGUACCUAGAUCU [JL-sv1-2.26 Brourd mod] (puzzle: Sensor v3, turn-off variant 1) | 0.0208 | 0.0176 | 0.0151 | – | – | –
CCACCUCACGUCAGGAUAUCCAUCUCGAGUGAGGAGGAGAAGGGACAUGAGGAUCACCCAUGUAUAGAAAGAAA [Veaonce] (Eterna round: R97, puzzle: Brourd's mod of Exclusion 4) | – | – | – | 0.0351 | 0.0221 | –
UAUAUAUAGUAAGGAUAUGUAUUUAUUUUACAAACAGAAGGUACUGACAUGAGGAUCACCCAUGUUUUAGUGUGGGCAUGUAGA [JMF's solution 24] (Eterna round: R96, puzzle: Exclusion NG 1) | – | – | – | – | – | 0.0488
AUUACGCAGUAGGAUAUGGGCGGUGAGCACCGUCCAGAAGGACUGACAUGAGGAUCACCCAUGUCCUCCCACAC [Eternabot (L2) Solution 42] (Eterna round: R97, puzzle: Exclusion 6) | – | – | – | 0.497 | 0.0558 | –
AAGGGUACUUUCGGAACGACAUGAGGAUCACCCAUGUAGACUGAGGAUAUCUACUACUAAGGACGGGAGAAGGCAGUGUAAUGU [Ex NG3 #76] (Eterna round: R96, puzzle: Exclusion NG 3) | – | – | – | – | – | 0.0118
GCAGGCGUCUAGGCUCGUCUUAUUUUGAGAGGAUUGAUAACAUGAGGAUCACCCAUGUUUGUGGGAGAGUUGCAGUG [JR_SV3TOV2_Sub015] (puzzle: Sensor v3, turn-off variant 2) | 0.241 | 0.121 | 0.143 | – | – | –
UAAUUAAGUGUGAGGAUAUGCUGGUCCUUGGAUCAGCAGAAGGCACAUGAGGAUCACCCAUGUAAUAUAUAUAU [Mat - Exclusion 4 - JL Mod - D53] (puzzle: Brourd's mod of Exclusion 4) | 0.108 | 0.361 | 0.104 | – | – | –
